From PMC12813979, “A Site-Specific Self-Association of a Protein Hub Drives Its Phase Separation” (ACS Chemical Biology, 2025)
* marks the point of attachment. Biotin = O=C1N[C@H]2[C@H](CS[C@H]2CCCCC(=O)*)N1

Experiments:
[1] = target: WD40 repeat protein 5 (WDR5), full-length (human, UniProt P61964 1-334); assay: BLI; biotinylated MLL3Win peptide immobilised on streptavidin sensors; WDR5 (0.11-9.0 µM) or ΔN-WDR5 (0.10-9.0 µM) in the wells; 150 mM KCl, 20 mM Tris-HCl, 1 mM TCEP, 1 mg/mL BSA, pH 7.5; global fit of kon and koff, KD derived indirectly from them; triplicates; details: both partners purified
[2] = target: N-terminus truncated WDR5, WDR5 23-334 (human, UniProt P61964 23-334); assay: as above; details: both partners purified

Kd [1]: 190 nM
koff [1]: 0.012 s⁻¹
kon [1]: 66000 M⁻¹ s⁻¹
Kd [2]: 170 nM
koff [2]: 0.0097 s⁻¹
kon [2]: 63000 M⁻¹ s⁻¹
B1: Win-like motif-based peptide ligand of mixed lineage leukemia 3 (MLL3Win) (peptide)
chain: Biotin-VNPTGCARSEPKMS-NH2
SMILES: CSCC[C@H](NC(=O)[C@H](CCCCN)NC(=O)[C@@H]1CCCN1C(=O)[C@H](CCC(=O)O)NC(=O)[C@H](CO)NC(=O)[C@H](CCCNC(=N)N)NC(=O)[C@H](C)NC(=O)[C@H](CS)NC(=O)CNC(=O)[C@@H](NC(=O)[C@@H]1CCCN1C(=O)[C@H](CC(N)=O)NC(=O)[C@@H](NC(=O)CCCC[C@@H]1SC[C@@H]2NC(=O)N[C@@H]21)C(C)C)[C@@H](C)O)C(=O)N[C@@H](CO)C(N)=O
